# According to article PMC5464773:
# pKi: −log10 of the molar value.
# Molecular target: Myc-tagged Bfl-1 (human) (UniProt Q16548)
# Experiment: fluorescence polarisation; competition: 0–10 μM unlabeled peptide titrated into 50 nM c-myc-tagged receptor plus 25 nM fluoresceinated BIM; 25 mM Tris pH 7.8, 50 mM NaCl, 1 mM EDTA, 5% DMSO, 0.001% v/v Triton-X; 23°C, 3 hr; fit to a complete competitive binding model
# Chain of Myc-tagged Bfl-1 (human) (Q16548 whole entry): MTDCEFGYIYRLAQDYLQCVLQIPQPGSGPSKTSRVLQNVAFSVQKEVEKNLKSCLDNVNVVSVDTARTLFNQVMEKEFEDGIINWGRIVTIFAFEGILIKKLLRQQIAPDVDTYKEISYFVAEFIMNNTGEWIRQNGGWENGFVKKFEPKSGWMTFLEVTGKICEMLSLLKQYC
substance,measurement,value
BIM BH3 peptide (unlabeled) (peptide; other documents disagree on this pair),pKi,> 10.00
